The target in data set [1] is T1, S. pneumoniae GAPN (Streptococcus pneumoniae, UniProt A0A0H2ZNN4).
T1 construct: N-terminal 6xHis tag, pET21b (NdeI), E. coli BL21(DE3); tag removal not mentioned; homotetramer; catalytic C283
As to the kind of experiment: isothermal titration calorimetry. Format: binding.

The target in data set [2] is T1, S. pneumoniae GAPN. As to the kind of experiment: UV kinetics at […] nm, varied G3P with fixed E4P ([…]). Format: biochemical.
Data set [3] relates to NC(=O)c1ccc[n+]([C@@H]2O[C@H](COP(=O)(O)OP(=O)(O)OC[C@H]3O[C@@H](n4cnc5c(N)ncnc54)[C@H](O)[C@@H]3O)[C@@H](O)[C@H]2O)c1. As to the kind of experiment: purified protein. The following applies: pH 8.5, 25°C, 1.0 mM G3P (Figure 2 legend says 500 μM), 20 μM GAPN, varied: cofactor.
In data set [4] the test system is NC(=O)c1ccc[n+]([C@@H]2O[C@H](COP(=O)(O)OP(=O)(O)OC[C@H]3O[C@@H](n4cnc5c(N)ncnc54)[C@H](OP(=O)(O)O)[C@@H]3O)[C@@H](O)[C@H]2O)c1. As to the kind of experiment: purified protein. The following applies: pH 7.5, 25°C, 1.0 mM G3P, 40 nM GAPN, varied: cofactor.
The subject of a further data set is O=C[C@H](O)COP(=O)(O)O. Description: purified protein. The note with it: pH 7.5, 25°C, 1.0 mM NADP+, 40 nM GAPN.
Data set [5] concerns the molecule itself. Description: cryo-EM structure; purified GAPN at 90 uM in 50 mM HEPES pH 7.5, 50 mM NaCl, 2 mM DTT; alone (apo), with 1 mM NADP+ (holo) or with 1 mM G3P; single particle reconstruction.

Like-named read-outs stand apart in the source and are kept apart here.

As for `O=C[C@H](O)COP(=O)(O)O` [G3P], the Kd on S. pneumoniae GAPN [1] (read-out: K D) came to 0.053 ± 0.036 µM.
A word on the Ki: it is the dissociation constant of the complex between target and ligand, obtained from inhibition or displacement. A higher Ki goes with weaker binding. On S. pneumoniae GAPN [2], `O=C[C@H](O)[C@H](O)COP(=O)(O)O` [E4P] came in with a Ki of 25.7 ± 7.2 µM.
For the molecule `NC(=O)c1ccc[n+]([C@@H]2O[C@H](COP(=O)(O)OP(=O)(O)OC[C@H]3O[C@@H](n4cnc5c(N)ncnc54)[C@H](OP(=O)(O)O)[C@@H]3O)[C@@H](O)[C@H]2O)c1` [NADP^+], on S. pneumoniae GAPN [1], the Kd was determined as 51 ± 32 µM.
By Km is commonly meant the concentration of substrate that gives half-maximal velocity. One may read the kcat as the maximal rate divided by the concentration of active sites. Usually Vmax stands for the rate approached at saturating substrate. As to “S. pneumoniae GAPN (Streptococcus pneumoniae D39)”, the values for the Km (in data set [3]; in data set [4]; with O=C[C@H](O)COP(=O)(O)O) were 7200 ± 2000 µM, 119 ± 12 µM and 88 ± 17 µM, respectively. Besides, the kcat in data set [3] was found to be 0.4 ± 0.1 s⁻¹; in data set [4], 14.2 ± 0.6 s⁻¹; in the data set with O=C[C@H](O)COP(=O)(O)O, 14.5 ± 0.7 s⁻¹. In addition, the Vmax worked out at 570 ± 20 nM/s in data set [4] and 580 ± 30 nM/s in the data set on O=C[C@H](O)COP(=O)(O)O.

B1: Streptococcus pneumoniae GAPN (non-phosphorylating glyceraldehyde-3-phosphate dehydrogenase) (enzyme, S. pneumoniae strain D39)
chain: MTRYQNLVNGKWKSSEQEITIYSPINQEELGTVPAMTQTEADEAMQAARAALPAWRALSAIERAAYLHKTAAILERDKEKIGTILAKEVAKGIKAAIGEVVRTADLIRYAAEEGLRITGQAMEGGGFEAASKNKLAVVRREPVGIVLAIAPFNYPVNLSASKIAPALIAGNVVMLKPPTQGSISGLLLAKAFEEAGIPAGVFNTITGRGSEIGDYIIEHKEVNFINFTGSTPIGERIGRLAGMRPIMLELGGKDAALVLEDADLEHAAKQIVAGAFSYSGQRCTAIKRVIVLESVADKLATLLQEEVSKLTVGDPFDNADITPVIDNASADFIWGLIEDAQEKEAQALTPIKREGNLLWPVLFDQVTKDMKVAWEEPFGPVLPIIRVASVEEAIAFANESEFGLQSSVFTNDFKKAFEIAEKLEVGTVHINNKTQRGPDNFPFLGVKGSGAGVQGIKYSIEAMTNVKSIVFDVK
notes: GAPN, non-phosphorylating glyceraldehyde-3-phosphate dehydrogenase of S. pneumoniae strain D39; gapn gene PCR amplified from genomic DNA; UniProt A0A0H2ZNN4_STRP2; The gene was inserted with an N-terminal 6xHis tag into NdeI-cleaved pET21b; Homotetramer in the cryo-EM structures
In general, stoichiometry N refers to the number of molecules, sites or subunits per partner or assembly. As for B1, the “stoichiometry N” value in data set [5] came to 4.

The values are drawn from PMC11633051, “Streptococcus pneumoniae GAPN is a key metabolic player necessary for host infection” (Protein Science : A Publication of the Protein Society, 2024).
